Source: US9884122B2, “Small molecule drug conjugates” (Philochem AG, priority 2014, dated 2018)

Key:
[1] = system: CAIX expressing SKRC52 cells; experiment: Ligand binding analysis by flow cytometry, SKRC52; format: cell-based, human; details: 30 nM dye conjugate, 1 h at 0° C., washed
Experimental: Cells were detached from culture plates using a 50 mM EDTA solution in phosphate buffered saline (PBS) pH 7.4, counted and suspended to a final concentration of 1.5×10^6 cells mL^−1 in a 1% v/v solution of FCS in PBS pH 7.4. Aliquots of 3×10^5 cells (200 μL) were spun down and resuspended in solutions of IRDye750 (Licor) labeled ligands (30 nM) in a 1% v/v solution of FCS in PBS pH 7.4 (200 μL) and incubated on ice for 1 h. Cells were washed once with 200 μL 1% v/v solution of FCS in PBS pH 7.4 (200 μL), spun down, resuspended in 1% v/v solution of FCS in PBS pH 7.4 (300 μL) and analyzed on a FACS Canto flow cytometer (BD Bioscience). FlowJo Version 8.7 (Treestar) was used for data analysis and visualization. Results were as follows: • (1) Flow cytometry analysis of binding of ligand-IRDye750 conjugates 1c-6c (FIG. 1) to CAIX expressing SKRC52 cells.
Flow cytometry was performed as described above with monovalent and bivalent near infrared dye conjugates B3 and B4 and negative control conjugates lacking the ligand on CAIX-positive SKRC52 cells and CAIX-negative HEK cells^5.

[2] = system: subcutaneous SKRC52 tumors
Experimental: SKRC52 cells were grown to 80% confluence and detached with Trypsin-EDTA 0.05% (Invitrogen). Cells were washed with PBS pH 7.4 once, counted and resuspended in PBS to a final concentration of 6.7×10^7 cells mL^−1. Athymic balb/c nu/nu mice, 8-10 weeks of age (Charles River) were anesthetized with isofluorane and aliquots of 1×10^7 cells (150 μL of suspension) injected subcutaneously into their lower back.
Food and water was given ad libitum during that period.
Mice were subsequently sacrificed by cervical dislocation.

[3] = target: T1, recombinant carbonic anhydrase IX (Homo sapiens, UniProt Q16790); experiment: biochemical; format: binding
T1 construct: Recombinant CAIX was expressed as described previously; made in house
Experimental: The FP was measured on a Spectra Max Paradigm multimode plate reader (Molecular Devices). Experiments were performed in triplicate and data analyzed as described by Wang and co-workers.^[4]

[4] = Hydrolytic stability in PBS pH 7.4 at 37 C (MS/MS or HPLC); format: physicochemical; set-up: half-life: dose or concentration left out as unconfirmed; details: PBS pH 7.4, 37° C.; for half-life: read-out: t1/2 in PBS (converted)
Experimental: (§1) Targeted carbonate or carbamate 7a or 8a (30 μg) was dissolved in PBS pH 7.4 (1.5 mL) and incubated at 37° C. under gentle agitation. Aliquots (100 μL) were removed at different time points and diluted 1:1 with an internal standard of etodolac (TCI Chemicals) in MeOH (20 μg mL^−1). Small molecules were separated from salts using an Oasis WAX online sample preparation column (Waters) on an Alliance HT separation module (50 μL injections, 0.3 mL min^−1 0.1% aq. HCOOH for 3 min followed by 0.3 mL min^−1 MeCN for 7 min, Waters) and analyzed by mass spectrometry/mass spectrometry (MS/MS) on a Quattro API spectrometer (Waters) monitoring appropriate multiple reaction monitoring (MRM) transitions for 8a, 8b and etodolac as standard. Measurements were performed in triplicate, peaks integrated and the fraction of intact test compounds calculated as fraction of signal at time t divided by signal at time zero. Since signals due to etodolac were constant over time a further correction using the internal standard as reference was omitted. For stability measures in mouse serum, compounds were dissolved in freshly thawed mouse plasma (Invitrogen), aliquots taken at different time points and diluted with an equal volume of MeCN. After vigorous vortexting for 1 min, protein precipitate was spun down and the supernatant analyzed as above.
Targeted DM1 conjugate 9a (230 μg, 140 nmol) was dissolved in PBS pH 7.4 (1 mL) and incubated at 37° C. under gentle agitation. […] Water (600 μL) was added and aliquots of this mixture (50 μL) analyzed over a Syngergi RP Polar column (150×4.6 mm, 4 μm, Phenomenex) on an Alliance HT separation module (1 mL min^−1 5% MeCN in 0.1% aqueous TFA to 100% MeCN over 20 min, Waters). Analytes were detected using a Water 2996 photo array UV/VIS detector (Waters). Measurements were performed in triplicate, peaks integrated and the fraction of intact test compounds calculated as fraction of signal at time t divided by signal at time zero. […] After vigorous vortexting for 1 min, protein precipitate was spun down and the supernatant analyzed as above.

[5] = Stability in mouse plasma/serum at 37 C; format: in vitro ADME
Experimental: as §1
Targeted DM1 conjugate 9a (230 μg, 140 nmol) was dissolved in PBS pH 7.4 (1 mL) and incubated at 37° C. under gentle agitation. Aliquots (100 μL) were removed at different time points and diluted 1:1 with an internal standard solution of etodolac (TCI Chemicals) in MeCN (20 μg mL^−1). Water (600 μL) was added and aliquots of this mixture (50 μL) analyzed over a Syngergi RP Polar column (150×4.6 mm, 4 μm, Phenomenex) on an Alliance HT separation module (1 mL min^−1 5% MeCN in 0.1% aqueous TFA to 100% MeCN over 20 min, Waters). Analytes were detected using a Water 2996 photo array UV/VIS detector (Waters). Measurements were performed in triplicate, peaks integrated and the fraction of intact test compounds calculated as fraction of signal at time t divided by signal at time zero. Since signals due to etodolac were constant over time a further correction using the internal standard as reference was omitted. For stability measures in mouse serum, compounds were dissolved in freshly thawed mouse plasma (Invitrogen), aliquots taken at different time points and diluted with an equal volume of MeCN. After vigorous vortexting for 1 min, protein precipitate was spun down and the supernatant analyzed as above.

[6] = Estimation of the recommended therapy dose (tolerability); format: in vivo, mouse; details: for tolerated dose: nude mice, one mouse per regimen
Experimental: Estimation of the recommended therapy dose of a) 7a and b) 8a in nude mice was performed by studying different dosages using a schedule of five injections on five consecutive days compared to vehicle (5% DMSO in PBS pH 7.4). The dosage regimens were 0.4 nmol/day, 1.3 nmol/day, 4.0 nmol/day and 13.3 nmol/day. One mouse was used for each regimen.
Estimation of the recommended therapy dose and schedule of DM1 conjugate 9a was studied in SKRC52 tumor bearing nude mice. One mouse was used for testing each dosing scheme. Injections were given daily starting on day 0 in 5% DMSO in PBS pH 7.4 (150 μL). […] Since the animals in this study weighed on average 18% less than those used in the therapy study, a dose of 70 nmol per injection was used for the therapy experiment.

[7] = system: SKRC52 xenograft tumors; details: for tumor growth effect: 5 doses of 4 nmol on 5 consecutive days, 7a vs vehicle p<0.0001, vs 7b plus AAZ p<0.05
Experimental: SKRC52 xenograft tumors were implanted into balb/c nu/nu mice (Charles River) as described above. […] 5 doses of 4 nmol 7a,b, 8a,b or 7 doses of 70 nmol 9a,b each in PBS pH 7.4 (150 μL) containing 5% DMSO were given on 5 or 7 consecutive days and one group was treated with vehicle (5% DMSO in PBS pH 7.4). In the case of 7-9b an equimolar amount of AAZ was added to the injection solution to control for a possible antitumor activity of CAIX inhibitors. Sorafenib and sunitnib were administered at a standard dose of 30 mg/kg as described previously.^[5] Animals were weighed and tumor sizes measured daily and the tumor volume calculated according to the formula (long side)×(short side)^2×0.5. […] Prism 6 (GraphPad Software) was used for data analysis (regular two-way ANOVA with the Bonferroni test).

[8] = system: CAIX expressing SKRC52 cells; experiment: In vitro cytotoxicity assay (MTS); format: cell-based, human; details: Condition (b): 1 h exposure, wash, then 72 h; concentrations up to 300 nM
Experimental: SKRC52 or A549 cells were seeded in 96-well plates in their appropriate culture medium (100 μL) at a density of 5000 cells per well and allowed to grow for 24 h. The medium was replaced with medium containing different concentrations of test substance (100 μL, 300 nM-15 pM in 1:3 dilution steps) and plates were either:
(a) incubated for 72 hours in the presence of the toxic substance, or
(b) incubated for 1 h under standard culture conditions, followed by removal of the medium containing the toxic substance, gently washing the cells fresh medium once and adding new medium (100 μL) and incubating for 72 h under culture conditions.
MTS cell viability dye (20 μL, Promega) was added, the plates were incubated for 1 h under culture conditions and the absorbance at 490 nm measured on a Spectra Max Paradigm multimode plate reader (Molecular Devices). Experiments were performed in triplicate and average cell viability calculated as measured background corrected absorbance divided by the absorbance of untreated control wells. EC50 values were determined by fitting data to the four-parameter logistic equation.

[9] = system: subcutaneous SKRC52 tumors; experiment: Analysis of tumor penetration by fluorescence microscopy; format: in vivo, mouse; details: 50 nmol intravenous; for tumor staining / penetration by fluorescence microscopy: Alexa546 probes
Experimental: After warming to −20° C., samples were cut into sections of 10 μm width and directly imaged on an Axioskop 2 fluorescence microscope (Zeiss).

[10] = 7×70 nmol on 7 consecutive days
[11] = five injections on five consecutive days

Which “binding to SKRC52 cells (fluorescence shift)” value [1] does the source give for `CC(C)(C)OC(=O)NCCOCCOCCNC(=O)CCCCc1ccc(C2=C(/C=C/C3=[N+](CCCCS(=O)(=O)O)c4ccc(S(=O)(=O)O)cc4C3(C)C)CCC/C2=C\C=C2\N(CCCCS(=O)(=O)O)c3ccc(S(=O)(=O)[O-])cc3C2(C)C)cc1` [Compound 6c, reference compound] here?
Its value is “only shows little residual binding”.

And the “tumor targeting by near infrared imaging” value ([2]; 3 nmol intravenous, 1-12 h)?
The value was “does not reach the tumor”.

What about the “accumulation in extracted tumor and organs (imaging)” value ([2]; mouse, in vivo) of the same molecule?
Its value is “very little tumor or organ accumulation”.

Which results are given for `COc1cc2cc(c1Cl)N(C)C(=O)C[C@H](OC(=O)[C@H](C)N(C)C(=O)CCSSC[C@H](NC(=O)[C@H](CC(=O)O)NC(=O)[C@H](CCCNC(=N)N)NC(=O)[C@H](CC(=O)O)NC(=O)CCCCn1cc(CCCC(=O)Nc3nnc(S(N)(=O)=O)s3)nn1)C(=O)O)[C@@]1(C)O[C@H]1[C@H](C)[C@@H]1C[C@@](O)(NC(=O)O1)[C@H](OC)/C=C/C=C(\C)C2` [Compound 9a, Targeted DM1 Conjugate]?
Kd [3]: 26.5 ± 2.5 nM; binding affinity for recombinant CAIX in vitro (in words) [3]: retain binding affinity for recombinant CAIX in vitro; decomposition in PBS (in words) ([4]; HPLC): No decomposition was observed; half-life ([5]; mouse serum, HPLC, read-out: t1/2 in mouse serum (converted)): 20 h; tolerability of six doses of 60 nmol ([6]; daily injections, SKRC52 tumor bearing nude mice): tolerated with only minimal weight loss; anti-tumor effect [7, 10]: potent anti-tumor effect; time after start of treatment at which tumors started regrowing [7, 10]: 20 days; toxicity (body weight) [7, 10]: no detectable body weight loss

For `COc1cc2[nH]cc(C(=O)N3C[C@@H](CCl)c4c3cc(OC(=O)N(C)CCSSC[C@H](NC(=O)[C@H](CC(=O)O)NC(=O)[C@H](CCCNC(=N)N)NC(=O)[C@H](CC(=O)O)NC(=O)CCCCn3cc(CCCC(=O)Nc5nnc(S(N)(=O)=O)s5)nn3)C(=O)O)c3ccccc43)c2cc1OCCN(C)C` [Compound 8a, AAZ Targeted CBI Carbamate], which Kd [3] is on record?
The Kd was 40.3 ± 2.6 nM.

And the “binding affinity for recombinant CAIX in vitro (in words)” value [3]?
The value was “retain binding affinity for recombinant CAIX in vitro”.

And the half-life ([4]; buffer)?
Its half-life is greater than 24 h.

What about the half-life ([5]; plasma, MS/MS, errors <1 min, read-out: Half lives in mouse plasma) of the same molecule?
Its half-life is 1.02 h.

And the half-life ([5]; serum, read-out: t1/2 in mouse serum in vitro)?
The half-life was 1.02 h.

What about the tolerated dose [6, 11] of the same molecule?
The tolerated dose was no more than 13.3 nmol/day.

What about the tumor growth effect [7] of the same molecule?
Its tumor growth effect is “did not lead to any retardation in tumor growth”.

What does the source list for `COc1cc2[nH]cc(C(=O)N3C[C@@H](CCl)c4c3cc(OC(=O)OCCSSC[C@H](NC(=O)[C@H](CC(=O)O)NC(=O)[C@H](CCCNC(=N)N)NC(=O)[C@H](CC(=O)O)NC(=O)CCCCn3cc(CCCC(=O)Nc5nnc(S(N)(=O)=O)s5)nn3)C(=O)O)c3ccccc43)c2cc1OCCN(C)C` [Compound 7a, AAZ Targeted CBI Carbonate]?
Kd [3]: 7.3 ± 0.5 nM; binding affinity for recombinant CAIX in vitro (in words) [3]: retain binding affinity for recombinant CAIX in vitro; EC50 [8]: 0.7 ± 0.1 nM; half-life [4]: 15 h; half-life ([5]; mouse plasma, MS/MS, errors <1 min, read-out: Half lives in mouse plasma): 0.717 h; half-life ([5]; mouse serum, read-out: t1/2 in mouse serum in vitro): 0.717 h; tolerability at 13.3 nmol/day [6, 11]: poorly tolerated; tolerated dose [6, 11]: up to 4.0 nmol/day; tumor growth effect [7]: statistically significant tumor growth retardation

With “N1-(2-(2-(2-aminoethoxy)ethoxy)ethyl)-N4-(5-sulfamoyl-1,3,4-thiadiazol-2-yl)succinamide Alexa546 conjugate [Compound 1b]” as the molecule, how does the “fluorescence in organs by microscopy” value [9] read?
Its value is “strong fluorescence due to 1b inside the tumor and the intestine”.

What about the “tumor staining / penetration by fluorescence microscopy” value [9] of the same molecule?
The value was “staining of the tumor with 1b is initially highest in well-perfused areas”.

With “tert-butyl (2-(2-(2-aminoethoxy)ethoxy)ethyl)carbamate Alexa546 conjugate [Compound 6b]” as the molecule, how does the “tumor staining / penetration by fluorescence microscopy” value [9] read?
Its value is “cannot be detected inside the tumor”.
